Data taken from paper PMC4678826, “Different genome stability proteins underpin primed and naïve adaptation in E. coli CRISPR-Cas immunity”.

T1: Cas2 (Escherichia coli, UniProt P45956 1-94)
T1 sequence: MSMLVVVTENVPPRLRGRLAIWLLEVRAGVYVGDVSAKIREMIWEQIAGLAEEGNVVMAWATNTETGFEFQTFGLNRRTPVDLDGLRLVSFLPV

T2: Cas1 (Escherichia coli, UniProt Q46896 1-305)
T2 sequence: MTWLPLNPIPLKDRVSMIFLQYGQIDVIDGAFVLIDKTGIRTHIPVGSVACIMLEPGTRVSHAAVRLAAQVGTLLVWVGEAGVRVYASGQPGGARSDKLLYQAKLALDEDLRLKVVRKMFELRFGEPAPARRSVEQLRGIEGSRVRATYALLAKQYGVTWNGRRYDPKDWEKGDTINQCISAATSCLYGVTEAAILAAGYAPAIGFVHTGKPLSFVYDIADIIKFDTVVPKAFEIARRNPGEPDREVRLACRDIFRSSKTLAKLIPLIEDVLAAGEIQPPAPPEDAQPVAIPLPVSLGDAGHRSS

B1: fork-1 (mixed)
DNA 1: CAACGTCATAGACGATTACATTGCTACATGGAGCTGTCTAGAGGATCCGA
DNA 2: TCGGATCCTCTAGACAGCTCCATGATCACTGGCACTGGTAGAATTCGGC
DNA 3: GCCGAATTCTACCAGTGCCAGTGAT
B2: fork-1a (mixed)
DNA 1: B1 DNA 1
DNA 2: B1 DNA 2
DNA 3: GCCGAATTCTACCAGTGCCAGTGAT
DNA 4: AATGTAATCGTCTATGACGTTG

Key:
[1] = target: T1, Cas2; assay: EMSA; 5 mM EDTA; EMSA: 7 mM Tris-HCl pH 8.5, 9% glycerol, 50 mM NaCl, 100 ug/ml BSA, 5 mM EDTA, 10 min ambient temperature, 6 nM DNA, 5% acrylamide TBE gel at room temperature; settings: protein: recombinant; tags: N-terminal His6; chain copies: 2; label: 5'-32P; fork; 25 nt leading arm duplex, 26 nt ssDNA flap
[2] = target: T2, Cas1; assay: EMSA; 5 mM EDTA; Cas1 0.1-25 nM, DNA 6 nM; EMSA: 7 mM Tris-HCl pH 8.5, 9% glycerol, 50 mM NaCl, 100 ug/ml BSA, 5 mM EDTA, 10 min ambient temperature, 6 nM DNA, 5% acrylamide TBE gel at room temperature; settings: protein: recombinant; tags: N-terminal His6; chain copies: 2; label: 5'-32P; fork; 25 nt leading arm duplex, 26 nt ssDNA flap
[3] = target: T2, Cas1; assay: EMSA; 5 mM EDTA; Cas1 25 nM, DNA 6 nM; similar to fork-1; EMSA: 7 mM Tris-HCl pH 8.5, 9% glycerol, 50 mM NaCl, 100 ug/ml BSA, 5 mM EDTA, 10 min ambient temperature, 6 nM DNA, 5% acrylamide TBE gel at room temperature; settings: protein: recombinant; tags: N-terminal His6; chain copies: 2; label: 5'-32P; fork with 4 nt ssDNA gap at branch point

| Binder | binding result [1] | binding result [2] | binding result [3] |
| --- | --- | --- | --- |
| B1 | no binding | binds |  |
| B2 |  |  | binds |
